Consider one substance from paper PMC9861716.

The target in this assay is His-Fc-G67 polypeptide. Description: co-sedimentation; Herceptin on Herceptin-modified liposomes (Her-Lipo), evaluated semi-quantitatively by SDS-PAGE and silver staining; no data shown.

On to Herceptin (trastuzumab) (antibody), for which the amount of Herceptin on Her-Lipo per 100 µg lipid (µg of Herceptin per 100 µg lipid) is 0.4.
